Measurements reported in publication PMC11334520, “In vitro higher-order oligomeric assembly of the respiratory syncytial virus M2-1 protein with longer RNAs”.

Assays:
Details in all cases: protein: recombinant; tags: N-terminal His6-GFP, cleaved with TEV; chain copies: 4
M2-1 [1] = target: T1, M2-1 (human respiratory syncytial virus …, UniProt P04545 1-194); assay: SEC; excess RNA; EMSA: 20 mM HEPES pH 7.5, 200 mM NaCl, 2 mM TCEP, 5% glycerol, room temperature 1 h, 4% native PAGE, SYBR Gold; SEC: Superdex 200 Increase 10/300, buffer not given
T1 sequence: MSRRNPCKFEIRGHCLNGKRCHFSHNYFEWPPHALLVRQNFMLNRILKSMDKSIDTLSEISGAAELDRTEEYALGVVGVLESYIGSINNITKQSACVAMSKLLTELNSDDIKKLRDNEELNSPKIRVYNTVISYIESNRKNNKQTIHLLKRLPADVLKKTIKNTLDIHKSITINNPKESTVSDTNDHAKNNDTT

M2-1 [2] = target: T1, M2-1; assay: EMSA; 0.5 uM RNA; Hill 0.95; EMSA: 20 mM HEPES pH 7.5, 200 mM NaCl, 2 mM TCEP, 5% glycerol, room temperature 1 h, 4% native PAGE, SYBR Gold; SEC: Superdex 200 Increase 10/300, buffer not given
M2-1 [3] = target: T1, M2-1; assay: EMSA; 0.5 uM RNA; Hill 8.10; EMSA: 20 mM HEPES pH 7.5, 200 mM NaCl, 2 mM TCEP, 5% glycerol, room temperature 1 h, 4% native PAGE, SYBR Gold; SEC: Superdex 200 Increase 10/300, buffer not given
M2-1 [4] = target: T1, M2-1; assay: EMSA; 0.5 uM RNA; Hill 0.83; EMSA: 20 mM HEPES pH 7.5, 200 mM NaCl, 2 mM TCEP, 5% glycerol, room temperature 1 h, 4% native PAGE, SYBR Gold; SEC: Superdex 200 Increase 10/300, buffer not given
M2-1 [5] = target: T1, M2-1; assay: EMSA; 0.5 uM RNA; Hill 5.17; EMSA: 20 mM HEPES pH 7.5, 200 mM NaCl, 2 mM TCEP, 5% glycerol, room temperature 1 h, 4% native PAGE, SYBR Gold; SEC: Superdex 200 Increase 10/300, buffer not given

Binder	binding result (M2-1 [1])	further results
UUUUUUUUUUUUUUUUUUUUUUUUUUUU (ssRNA) [Poly28U]	binds	–
AGUUAAUUAAAAAUAG (ssRNA) [SH16(+)]	binds	–
AAAAAAAAAAAAAA (ssRNA) [Poly14A]	–	Kd (M2-1 [2]): 580 nM
AAAAAAAAAAAAAAAAAAAAAAAA (ssRNA) [Poly24A]	–	Kd (M2-1 [3]): 4440 nM
UUUUUUUUUUUUUUUUUUUUU (ssRNA) [Poly21U]	binds	–
AAAAAAAAA (ssRNA) [Poly9A]	–	Kd (M2-1 [4]): 1940 nM
AAAAAAAAAAAAAAAAAAA (ssRNA) [Poly19A]	–	Kd (M2-1 [5]): 2720 nM
UUUUUUUUUUUUUUUU (ssRNA) [Poly16U]	no binding	–
CCCCCCCCCCCCCCCC (ssRNA) [Poly16C]	no binding	–
AAAAAAAAAAAAAAAA (ssRNA) [Poly16A]	binds	–
CUAUUUUUAAUUAACU (ssRNA) [SH16(-)]	no binding	–
